Experiment: label from the status in PepcDB records
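Note: failed if final PepcDB status was selected cloned or expressed and not failed if soluble or beyond.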

Sequence | protein production
MNQRIETITALLDEKKAFDITHIDLSKTPYLVEDVIIATTLANKHALSLLDALKNTLKPLGEVFYQIDESNEEWIILDLGDLMIHLFTEECRKKFDLEGFLNAYKRGLPYQNA | failed
MNQTFIYYTVLFLIIFITISNLVENYRYSPKKIKNIIGIAFLLQIIRIVSLIALALVSDQRYISLFKYVGFLDIIYIPLMALIAFYILLRSDKINFQFFKFAPMVLTGFYIGVITIFKPFFKMSWEYGYVITTEKQILLKSIYILFLVAILSFLILFKKENHSDKKGIVFLGVTLAFIIIENSLELLGVRFLNGAIISELILCILGFYIVLTFKKNRISIRDCIKS | failed
MNRAFSRKKDKTWMHTPEALSKHFIPYNAKFLGSTEVEQPKGTEVVRDAVRKLKFARHIKKSEGQKIPKVELQISIYGVKILEPKTKEVQHNCQLHRISFCADDKTDKRIFTFICKDSESNKHLCYVFDSEKCVSIPDVVGWFVLFYKPGIVLLLALAKYLKMNNFL | failed
MNRARTNDRRRAGDGPRRSRSAGRPQNSGRRPAAAPQGGEFALPKTITPALPAVETFAELDLPARMLAALGDQGVTEPFPIQAATLPNSLAGRDVLGRGRTGSGKTLAFGLALLARTAGKRAEPRRPLALVLVPTRELAQQVTDALTPYARAVGLRSATVVGGMSIGRQAGALRSGAEVVVATPGRLKDLIDRGDCALGDVTITVLDEADQMTDMGFMPQVTALLDQVAADGQRMLFSATLDRNVDKLVRRYLTDPVVHSVDPSAGAVTTMEHHVLHVQDEDKQRATIEIAARDGRVIMFLDTKHRVDRLVKHLLKSGVRAAGLHGGKSQPQRTRTLAQFKDGQVTALVATNVAARGIHVDNLDLVVNVDPPGDHKDYLHRGGRTARAGESGSVVTLVTPDQRREMTRLMSLAGITPQVTPVRSGEAELARITGAQTPSGVPVVITAPVVERPRRAAAGAGSPSRGRRGRSAQGRSGGQGTGTQARTGAAQSRTAGQSRTAAQGRPTGESPRRRPRRQSTGGSTGSAA | failed
MNRFNYIGMLAYVALSMSSCDDSFDVSSKADGVLAVSQEGFNTLQSYNVGEKYTADLWIQQGGLKSTASVVSFSVDKALLDSMNIADGTSYELLPADCYQLTKSSVDIPANERLLKGELTYDPAKIQELSGYDHLKYVLPLRATSSGMPFVSGRSVLLLGFKVSEPIVTIMNAGVEEINLAEVKELPVQIGVPFTNKWEISCRLESRQSVIDAYNTAHGTYFSMLPSDAYVTPETPILHSGVNQVTATYKLKDDILPGNYMLPVQIAEVTSDATIRADKDVYAAYSIIKEGDKLSKTDWKIVSFTTEEASGEGSNNGHAKHLIDGNIETFWHSRWQGGSDPLPYEIIIDMNHRVKIAQIELLPRGRGSNNPIKVVRFEASEDGTNWESIGQFGFTNQDAALKYYVKSSTARYIKLVIPDGVGNGTVAAIRELDVRGTVVN | failed
MNRGVIVTGGGHGIGKQICLDFLEAGDKVCFIDIDEKRSADFAKERPNLFYFHGDVADPLTLKKFVEYAMEKLQRIDVLVNNACRGSKGILSSLLYEEFDYILSVGLKAPYELSRLCRDELIKNKGRIINIASTRAFQSEPDSEAYASAKGGIVALTHALAMSLGPDVLVNCIAPGWINVTEQQEFTQEDCAAIPAGKVGTPKDISNMVLFLCQQDFITGETIIVDGGMSKRMIYHGDWNWFYKIDK | not failed
MNRKKLQKLTDTLTKNCKHFNKFEVNCLIKLFYDLVGGVERQGLVVGLDRNAFRNILHVTFGMTDDMIMDRVFRGFDKDNDGCVNVLEWIHGLSLFLRGSLEEKMKYCFEVFDLNGDGFISKEEMFHMLKNSLLKQPSEEDPDEGIKDLVEITLKKMDHDHDGKLSFADYELAVREETLLLEAFGPCLPDPKSQMEFEAQVFKDPNEFNDM | failed
MNRLDQLGIRINLICNVFDKWIGQQDLNYNLFTVLYTLATEGSRTQKHIGEEWSLPKQTVSGVCKTLAGQGLIEWQEGEQDRRERLLSLTEKGKVHAAPLTENAQEFSDKVFSTFGDKRTTRLFADLDALAEVMEKTISENKK | failed
MNRNDITILSQQRESVLATNKVLRNTYLLLSLTFIFSALTAYVAFISGARPMNPLLMIVGVYGLMFLTQALRNSVWGLVSVFAFTGFLGYTIGPLLNYYITGFSNGPQIVATALGGTGMIFFALSGYALTTKKDFSYLGGFLFVGVMVALLAMIAGIFIQIPALQLVISAAFVLISSGLILLQTSAIIHEGETNYIMATIGLFVSIYNLFVSLLNLLSAFSGRD | failed
MNRSLWTQWSIASVIVLFCAFCLYSPAHAGVDEDLVRAVEDNKTHRVRDLLTKGASPDARDLQSETALMLAARNKNPEMGGLLLEAGANPDLRNKYGETATMLACYYGQLDLVKRLYAKGAKIDHDGWNPLIYAASKGYKEIVEFLLNYGVRIDAATDNGTTALMMAVRGNHYDTVELLLKHGANALIRNEADGTALGWARKQGHTSIVQLLTRNGTAD | failed
MNSASTTVPTDLTNERLPSGRLLALGLQHVLVMYAGTVAVPLIVGGALKLPKDQLAFLINADLFAAGLATLIQAFGFWKFGIRMPVMMGVTFASVAPMIAIGNDPNVGLLGIYGAVIASGIFGILIAPMMGRMLGLFPPVVTGTVITLIGVSLMRVGINWAGGGQPTTRAVIDGVAKEVPNLAYGDLSNLAIAGLVLAVILLLSKYGRGLVANCAVLLGIIIGTLVAMALGKVSFEGLNEASYVAVITPLHFGIPKFELTAILSMCIVMLITLVESTGMFLALSDITGRKLSRDDLTAGLRADGLGTVIGGIFNTFPYTSFSQNVGLVTVTGVRSRYVAAAGGLILIAFGLFPKMAHVVASVPQFVLGGAGIVMFGMVAATGIRILGSCDFNRNRHNLFIVAISIGFGMIPTLSPTLFQYLPKWTDPFTHSGIVLGTIVAVALNLFFNGIQSAEEAMRNAAANSHGTE | failed
MNSCILQATVVEAPQLRYTQDNQTPVAEMVVQFPGLSSKDAPARLKVVGWGAVAQELQDRCRLNDEVVLEGRLRINSLLKPDGNREKQTELTVTRVHHLTLDSATGILAQEESEVSYGRSAAASAPVKASPVVTPTAAPDVDYDDIPF | failed
MNSEVDTLFAQAYKLQYEGHLPQAISLYEQILAQSPKHTETLHFLGLTYAQLGDMENAILYFLQARKINPNDVGILNNLANAYKKAGQLDEAIKYYQQAIEIKPEYVQAHNNLAATYALLNNYQKALHHYVIAVNTEPDFSAAHFNLGLLLLKNQQLSAAKTQFNNVIALNPQHREAQFYLGILHLEDNLLSEAEQAFHKVLEQDHEHVQSLINLGVIALKREQNQLAVDYFTKALALDNEDIDARNNLAATFMHHDRFENALMHYDVLLKKEPDNLEYLYNSGVAQMALGHLNEATLLFDQILTLQSDHTPSLNNLAAIYLKMDMRETAREYLERALAINPDDVISRHMLNAITGATSVNTTEKYAQNLFNNYALYYDQHMQGELHYKIPHHIGRLIHQLQLLQTSHSLDLGCGTGLTGIVLREISKHLTGVDIAEKMIARAKEKNIYDLLVCSELIDFLRKDKNDYDLAVAADVLPYFGNLDDIFNSINQHLKQEGYFIFTTEISTTTPWKLESSARFSHQPEYIESLINKYQFHLIKQEKIPGRTQNKQVLEVMLYCIQKSTSCFVSN | failed
MNSHFLTNDLILEVLSRLPLKSVARFHCVSKRWASMFGSPYFKELFLTRSSAKPRLLFAIVQNGVWRFFSSPRLEKSSSTLVATAEFHMKLSPNNLRIYHDNTPRYFSIGYASGLIYLYGDRYEATPLICNPNTGRYTILPKCYTYRKAFSFFGFDPIDKQYKALSMIYPSGPGHSKILTFGDGDMNWKKIKYRVLHDIYSQGICINGVLYYLGDTSDWDNDHDVTSGNVLVCFDLRSESFTFIGLECGQLINYKGKLAVIFWDDVDDDDVKDDAIDEMHVWVLEDVEKKEWSKYAYTWTEDKLYRSQVSVVGMTASGEIVFSMRKYTSEQPFYVYYFNPERNNLRRVEIQGFEAFTKFGTVYTFVDHVEDLNVYNLKHFKSVHPPSVQPEYDESDSESEEDREIII | failed
MNSIEKELDCGRSVTDQQKIEEVTRQITEHGNELRRRYPVLNYQNALGASAMAVSVTVMVVTGVLYVKGIMPAWLCILVNALSTSIIHELEHDLIHRLYFRKQPLAHNFMMLLCWLTRPGMPSPWLRRGLHFHHHKESGTATDVEAWITTSGNPWGILRLLKLMDGFLFGFVNAVCAPGWRQKMKLLARIIRLNTPFGLLYWGSWYVFLGYHLSTWLGGLAGVPPPSSPLMLQVMNMIDCVVVIVVAPNMIRQFCLYFISSNMHYYGDVAPRNALQQTQVMNHWLLWPFQLFCFNFGSTHSIHHFVVKDPFYLRQMTAPYAHEVMAKAGVRFNDFGTYKRANRFKLDTVQFQSRG | failed
MNSLPSPHPPLSPAVPVASRAALRLAELGVFVLTALVVNMPSGLLPFGVCLLGGTLLGWRSLRAGLATQGWSLRVLTGLTAVVIAMSVLSIVLFEPSVRDVENRSRFLVLPWAALWAYALQPRQVWLWRGALAGVFAAMLVAILQVMNGAERAEGWTNAIVFADIALMLLVVAIFCRPNGQVRWLLGAAVAAVAVIVLSGSRGVWLSLLVTLGVLVWGAPWQSARMRLLAFVGGAVVCVGLVLSVPGLTEQLRIGELQSDFQRYEVGDADSSAGARIERLHVAWDTLQAHPLTGVGVGRFDDAMRELPLCAGDTWLLRCHLGHAHNDLAEWGATQGIPGLLLLIAVYGVPLWMFVRLHRRSGQRQFRGPAAAGVMIVISYALCGLTQSMFAHQVSASFYAAMVGILAGLAARQAQQHATAASPLAQSAR | failed
MNSLSSLAAVLLMAGRSTRMGQPKALLPLGGMPLCRHAAQTLVEAGYGEVWAVLPPGETGDAVRAALQGLPLRWVTNPQPAQGLLSSFQAAGEALWAESAAPAVVFTLADMPLVRRDTHQALGTVFGAEQPAAIITRYGEVAAPPTLLRRDLLPRLHEFPPSDHGPRTLLRELGRELKKIDRPAAELLDIDTPEAWAQAQQLFAEVTPGAQDGP | failed
MNSNANNTPIAIGISQVFPCSYLDGQQEQLLVIQEETLDPILFERLLAIGFRRSGSAIYKPRCPRCSACQPIRVPIQEFVPSKRQKRTLAHNRDLTWRITTEHTETQYALYEKYIRERHFDGPMYPPSKAQYEQFLFCHWLPPTFIEVYDDNRLVAVAVTDTLPNSFSAIYSYFDPDEERRSLGVLLILLQCRLAKLQGKAFLYLGYQIDANRKMSYKRLYRPYQILTHQGWEYSQVCLEHHHHHH | failed
MNSNVNDRKPRLVFFQWDHQPNANAAGYLLLHMQQQVKCLSTHFDVVVINRDCDYAEICDRYEPDLTLFESGYRSHGSRRIKITNTNTHIAVPKLGLHNADAWCDRRAGFLSDMEQWGIEAYFAIATMTPEYMPAVKENLFVWPNFIDPDVYHDYGQQKVIPAMLTGQAYGLYPWRQTVFPMIRDRYPCLVSPQHAYESKLASQLLSGEAYARALNASLVVPTCGTMGGEVVRKHFEIPGAKACLVTERTPAVEAAGFVDMENCVFVDGHNVVERLDYLFAHPDEIRHITTAGYSLIHSRHTLSHRPQIYQWFMLSKGLQFGEKIIQSGPFGDLTKVQRISRQESVHIVGEASDRALLKQGDLLLEQGRVEEAKQCYARCLDYVSYLPEAKFRLAICALQQGDADRAYGLMVGLVKVTMTEYEALNPDPVEWAYFLLALICRGQFERARRLQDFYPSLSHDEFRRARLVIALLGGSGDAAVSGRYGRDRKSIHQIPDRSDSEWLAWFSDILERCQQPDLANVLRHAPVGRSGVGEKVTFLHFKRDAGWRLRLYSGVDGLMVGLHLNGLRPNVPPLPEFRYFSHLARRLVPHSQRGPLRRIRTALSRLPVGTGN | failed
